In patent US6989362:

Test system: phospho-Thr75 DARPP-32

purified catalytic subunit of cAMP-dependent protein kinase (PKA)
phosphorylation of Thr34 DARPP-32 by PKA in vitro: The ability of PKA to phosphorylate Thr34 DARPP-32 in vitro was virtually abolished by prior phosphorylation at Thr75
